The record followed here is patent US20170340735A1 (published 2017).

Assay [1] concerns the target T1, human TIGIT on the cell surface (human, UniProt Q495A1 22-244).
T1 sequence: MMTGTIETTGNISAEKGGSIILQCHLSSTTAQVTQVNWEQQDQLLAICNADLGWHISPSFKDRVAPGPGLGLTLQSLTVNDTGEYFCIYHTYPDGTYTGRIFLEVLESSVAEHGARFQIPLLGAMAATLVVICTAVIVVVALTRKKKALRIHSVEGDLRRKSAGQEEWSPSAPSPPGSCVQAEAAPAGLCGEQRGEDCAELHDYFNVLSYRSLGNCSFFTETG
Description: cell-based or functional assay.

Assay [2] has as its target T2, recombinant monomeric cynomolgus monkey TIGIT-His (cynomolgus monkey).
T2 construct: also called Cyno TIGIT His; cTIGIT; not shown: His tag
The assay is described as follows: BLI (ForteBio), IgG on AHQ sensor, 100 nM monomeric antigen, 1:1 model. How it is done: (§1) Quantitative binding of antibodies to recombinant monomeric human, mouse (SEQ ID NO: 3), cynomolgus monkey TIGIT was measured using biolayer interferometry (BLI) with a FORTEBIO®. […] FORTEBIO affinity measurements were performed by loading IgGs on-line onto AHQ sensors. Sensors were equilibrated off-line in assay buffer for 30 min and then monitored on-line for 60 seconds for baseline establishment. Sensors with loaded IgGs were exposed to a single concentration of antigen (100 nM) for 3 minutes. Afterwards they were transferred to assay buffer for 3 minutes for off-rate measurement. Kinetics were analyzed using the 1:1 binding model.
Background: In BLI a coated tip is dipped into the sample, and binding shifts an interference pattern.

For assay [3], the target named is T3, recombinant monomeric human TIGIT-His (human, UniProt Q495A1 22-141).
T3 construct: also called hTIGIT; not shown: His tag
T3 sequence: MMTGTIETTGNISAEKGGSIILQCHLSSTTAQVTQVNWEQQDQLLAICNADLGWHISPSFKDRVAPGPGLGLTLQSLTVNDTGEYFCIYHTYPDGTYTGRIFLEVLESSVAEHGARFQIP
The assay is described as above. Here is the method:
as §1

The target in assay [4] is T3, recombinant monomeric human TIGIT-His. The assay is described as follows: BLI (Octet QKe), antibody on AHC sensor, several concentrations of human TIGIT-His, 1:1 global fit, average. How it is done: A strategy of capturing anti-TIGIT antibodies on sensors following association/dissociation of monomeric TIGIT proteins was used to avoid avidity effects in the assay. The BLI analysis was performed at 29° C. using 1× kinetics buffer (ForteBio) as assay buffer. Anti-human IgG Fc capture (AHC) biosensors (ForteBio) were first presoaked in assay buffer for over five minutes. Anti-TIGIT antibody (5 μg/mL) was captured on the sensor for 300 seconds. Sensors were then dipped in assay buffer for 120 seconds to establish a baseline before measuring binding to each TIGIT protein. […] Dissociation of TIGIT was measured by dipping the sensors into assay buffer for 600, 1200, or 1800 seconds, depending on the experiment (600 seconds was only used for mouse TIGIT-His). Agitation at all steps was 1000 rpm.
Kinetic parameters were generated with Octet® Data Analysis Software Version 8.2.0.7 using reference subtraction, dissociation based inter-step correction, 1-to-1 binding model, and global fit (Rₘₐₓ unlinked by sensor).

Another assay has as its target T4, human PVRL4-His (human, UniProt Q96NY8 32-349).
T4 construct: also called Nectin-4; not shown: His tag
T4 sequence (looked up): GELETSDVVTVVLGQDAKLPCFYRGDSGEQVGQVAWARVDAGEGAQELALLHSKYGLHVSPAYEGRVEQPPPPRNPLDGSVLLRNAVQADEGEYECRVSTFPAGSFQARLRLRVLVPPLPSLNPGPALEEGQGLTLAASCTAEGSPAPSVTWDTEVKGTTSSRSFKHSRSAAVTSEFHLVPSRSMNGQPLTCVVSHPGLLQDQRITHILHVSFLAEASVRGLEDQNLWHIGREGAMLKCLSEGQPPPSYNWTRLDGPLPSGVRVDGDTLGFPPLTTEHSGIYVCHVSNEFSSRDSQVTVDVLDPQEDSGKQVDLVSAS
Description: BLI, antibody on AHC sensor, human PVRL4-His in solution. Here is the method: The BLI analysis was performed at 30° C. using 1× kinetics buffer as assay buffer. AHC sensors were first presoaked in assay buffer for greater than 5 minutes. Antibody (5 μg/mL) was captured on the sensor for 300 seconds. Sensors were then dipped in assay buffer for 120 seconds to establish a baseline before measuring binding to human PVRL4-His protein. Sensors were then dipped into human PVRL4-His (200 nM in assay buffer) for 200 seconds to measure association. Dissociation of PVRL4 was then measured by dipping sensors into assay buffer for 200 seconds. Results were analyzed using Octet® Data Analysis Software Version 8.2.0.7.

Assay [5] has as its target T1, human TIGIT on the cell surface. Description: flow cytometry, antibody titrated against labeled PVRL2-Fc binding to human TIGIT Jurkat cells. Here is the method: (§2) Quantitative ligand blocking studies were conducted by using a cell surface TIGIT binding assay.
On the technique in general: Flow cytometry measures light scatter and fluorescence of single cells or particles in a stream.

For assay [6] the target is unchanged. Description: flow cytometry, antibody titrated against labeled PVR-Fc binding to human TIGIT Jurkat cells. Here is the method:
as §2

Assay [7] deals with T3, recombinant monomeric human TIGIT-His. Description: MSD-SET solution equilibrium titration, monomeric antigen. How it is done:
See Estep et al., supra, incorporated by reference in its entirety. Briefly, solution equilibrium titrations (SET) were performed in PBS+0.1% IgG-Free BSA (PBSF) with antigen (TIGIT monomer) held constant at 10-100 pM and incubated with 3- to 5-fold serial dilutions of Fab or mAbs starting at 10 pM-10 nM. Antibodies (20 nM in PBS) were coated onto standard bind MSD-ECL plates overnight at 4° C. or at room temperature for 30 min. Plates were then blocked by BSA for 30 min with shaking at 700 rpm, followed by three washes with wash buffer (PBSF+0.05% Tween 20). SET samples were applied and incubated on the plates for 150s with shaking at 700 rpm followed by one wash. Antigen captured on a plate was detected with 250 ng/mL sulfotag-labeled streptavidin in PBSF by incubation on the plate for 3 min. The plates were washed three times with wash buffer and then read on the MSD Sector Imager 2400 instrument using 1× Read Buffer T with surfactant. The percent free antigen was plotted as a function of titrated antibody in Prism and fit to a quadratic equation to extract the KD. To improve throughput, liquid handling robots were used throughout MSD-SET experiments, including SET sample preparation.

Usually Kd stands for the constant that tells how readily two partners part at equilibrium. By koff is commonly meant a measure of how fast the partners let go of each other. The term kon denotes a measure of how fast the partners come together. What is called IC50 is the concentration that inhibits the measured activity by half.

T2 sequence (chain, as listed by the source limits assumed): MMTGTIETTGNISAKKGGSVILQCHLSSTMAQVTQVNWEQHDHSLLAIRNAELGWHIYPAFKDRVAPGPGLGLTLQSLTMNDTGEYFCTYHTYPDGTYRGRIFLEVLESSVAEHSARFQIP

B1: SEC1 (format not stated) (antibody, V domains shown)
VH: EVQLVESGGGLTQPGKSLKLSCEASGFTFSSFTMHWVRQSPGKGLEWVAFIRSGSGIVFYADAVRGRFTISRDNAKNLLFLQMNDLKSEDTAMYYCARRPLGHNTFDSWGQGTLVTVSS
VL: DIVMTQSPSSLAVSPGEKVTMTCKSSQSLYYSGVKENLLAWYQQKPGQSPKLLIYYASIRFTGVPDRFTGSGSGTDYTLTITSVQAEDMGQYFCQQGINNPLTFGDGTKLEIK
As to B1, in assay [1], the “Average EC50, IL-2 production, human TIGIT Jurkat/anti-CD3 HT-1080 co-culture assay” value is 8.46 nM.

B2: MAB18-IgG4 (antibody, V domains shown)
VH: QVQLVQSGAEVKKPGASVKVSCKASGYTFPAYYMHWVRQAPGQGLEWMGIINPSLGLTSYARKFQGRVTMTRDTSTSTVYMELSSLRSEDTAVYYCARGGRTTWIGAFDIWGQGTMVTVSS
VL: EIVMTQSPATLSVSPGERATLSCRASQSVSSNLAWYQQKPGQAPRLLIYGASTRATGIPARFSGSGSGTEFTLTISSLQSEDFAVYYCQQYVVWPPLTFGGGTKVEIKR
Take B2: the “Average EC50, IL-2 production, human TIGIT Jurkat/anti-CD3 HT-1080 co-culture assay” value in assay [1] is 0.25 nM. For the same molecule, the figures for the Kd in assay [2], in assay [3] and in assay [4] were 72 nM, 0.448 nM and 0.81 nM, respectively. Further, the koff in assay [4] amounted to 0.00059 s⁻¹. Besides, the kon in assay [4] came out at 750000 M⁻¹ s⁻¹. Also, the binding result with human PVRL4-His is listed as “no binding (tested: 200 nM)”. Moreover, the IC50 amounted to 1.9 nM in assay [5] and 1.8 nM in assay [6].

B3: MAB13-IgG4 (antibody, V domains shown)
VH: QVQLVQSGAEVKKPGASVKVSCKASGYTFGNYYMHWVRQAPGQGLEWMGIINPSLGLTSYAQKFQGRVTMTRDTSTSTVYMELSSLRSEDTAVYYCARGGRTTWIGAFDIWGQGTMVTVSS
VL: EIVMTQSPATLSVSPGERATLSCRASQSVSSNLAWYQQKPGQAPRLLIYGASTRATGIPARFSGSGSGTEFTLTISSLQSEDFAVYYCQQYVVWPPLTFGGGTKVEIKR
As for B3, the “Average EC50, IL-2 production, human TIGIT Jurkat/anti-CD3 HT-1080 co-culture assay” value in assay [1] came to 1.4 nM. Moreover, the Kd in assay [7] came out at 0.4 nM; in assay [3], 1.44 nM. Also, the binding result with human PVRL4-His was “no binding (tested: 200 nM)”. The figures for the IC50 in assay [5] and in assay [6] were 1.8 nM and 2.1 nM, respectively.

B4: MAB14-IgG4 (antibody, V domains shown)
VH: QVQLVQSGAEVKKPGASVKVSCKASGYTFPAYYMHWVRQAPGQGLEWMGIINPSLGLTSYAQKFQGRVTMTRDTSTSTVYMELSSLRSEDTAVYYCARGGRTTWIGAFDIWGQGTMVTVSS
VL: EIVMTQSPATLSVSPGERATLSCRASQSVSSNLAWYQQKPGQAPRLLIYGASTRATGIPARFSGSGSGTEFTLTISSLQSEDFAVYYCQQYVVWPPLTFGGGTKVEIKR
As for B4, the “Average EC50, IL-2 production, human TIGIT Jurkat/anti-CD3 HT-1080 co-culture assay” value in assay [1] came out at 0.71 nM. The Kd was 0.38 nM in assay [7] and 1.23 nM in assay [3]. In the assay with human PVRL4-His, the binding result is reported as “no binding (tested: 200 nM)”. Further, the IC50 came out at 1.6 nM in assay [5] and 2.6 nM in assay [6].

B5: MAB19-IgG4 (antibody, V domains shown)
VH: QVQLVQSGAEVKKPGASVKVSCKASGYTFTSHYMGWVRQAPGQGLEWMGVINPSMGATSYAQKFQGRVTMTRDTSTSTVYMELSSLRSEDTAVYYCARLHVSGSYYPAYLDYWGQGTMVTVSS
VL: EIVMTQSPATLSVSPGERATLSCRASQSVSSNLAWYQQKPGQAPRHLIYGASTRATGIPARFSGSGSGTEFTLTISSLQSEDFAVYYCQQYIVFPWTFGGGTKVEIKR
With B5, in assay [1], the “Average EC50, IL-2 production, human TIGIT Jurkat/anti-CD3 HT-1080 co-culture assay” value stood at 0.2 nM. Further, the binding result with human PVRL4-His was “no binding (tested: 200 nM)”. Further, the values for the concentration for half-maximal inhibition (IC50) in assay [5] and in assay [6] were 2 nM and 6.4 nM, respectively.

B6: MAB20-IgG4 (antibody, V domains shown)
VH: QVQLVQSGAEVKKPGASVKVSCKASGYTFTSHYMGWVRQAPGQGLEWVGIINPSMGATSYAQKFQGRVTMTRDTSTSTVYMELSSLRSEDTAVYYCARLHVSGSYYPAYLDYWGQGTMVTVSS
VL: EIVMTQSPATLSVSPGERATLSCRASQSVSSNLAWYQQKPGQAPRHLIYGASTRATGIPARFSGSGSGTEFTLTISSLQSEDFAVYYCQQYIVFPWTFGGGTKVEIKR
Regarding B6, in assay [1], the “Average EC50, IL-2 production, human TIGIT Jurkat/anti-CD3 HT-1080 co-culture assay” value worked out at 0.68 nM. The values for the dissociation constant (Kd) in assay [7] and in assay [4] were 0.03 nM and 0.46 nM, respectively. Further, in assay [4], the koff turned out to be 0.00038 s⁻¹. Besides, the on-rate constant (kon) in assay [4] came out at 890000 M⁻¹ s⁻¹. In addition, the binding result in the assay with human PVRL4-His was “no binding (tested: 200 nM)”. The results for the IC50 in assay [5] and in assay [6] were 1.9 nM and 2.3 nM, respectively.

B7: MAB21-IgG4 (antibody, V domains shown)
VH: QVQLVQSGAEVKKPGASVKVSCKASGYTFTSHYMGWVRQAPGQGLEWMGIINPSMGATSYTQKFRGRVTMTRDTSTSTVYMELSSLRSEDTAVYYCARLHVSGSYYPAYLDYWGQGTMVTVSS
VL: EIVMTQSPATLSVSPGERATLSCRASQSVSSNLAWYQQKPGQAPRHLIYGASTRATGIPARFSGSGSGTEFTLTISSLQSEDFAVYYCQQYIVFPWTFGGGTKVEIKR
Take B7: in assay [1], the “Average EC50, IL-2 production, human TIGIT Jurkat/anti-CD3 HT-1080 co-culture assay” value was determined as 0.61 nM. Also, the results for the Kd in assay [7] and in assay [4] were 0.08 nM and 0.36 nM, respectively. Besides, the koff in assay [4] is 0.0005 s⁻¹. Besides, the kon in assay [4] amounted to 1.4e+06 M⁻¹ s⁻¹. Further, the binding result in the assay with human PVRL4-His is listed as “no binding (tested: 200 nM)”. The IC50 in assay [5] amounted to 0.8 nM; in assay [6], 1 nM.
